What was measured:
purified protein [1] = substrate: Nc1ncnc2c1ncn2[C@@H]1O[C@H](COP(=O)(O)OP(=O)(O)O[C@H]2O[C@H](CO)[C@@H](O)[C@H](O)[C@H]2O)[C@@H](O)[C@H]1O; test: purified protein; type: biochemical, Sulfolobus acidocaldarius; settings: glycosyl donor, G6P as acceptor (standard 10 mM), 10 mM MgCl2, 50 mM HEPES-KOH pH 7, 55°C
purified protein [2] = substrate: O=c1ccn([C@@H]2O[C@H](CO[P@@](=O)(O)O[P@@](=O)(O)O[C@H]3O[C@H](CO)[C@@H](O)[C@H](O)[C@H]3O)[C@@H](O)[C@H]2O)c(=O)[nH]1; test: purified protein; type: biochemical, Sulfolobus acidocaldarius; settings: glycosyl donor, G6P as acceptor (standard 10 mM), 10 mM MgCl2, 50 mM HEPES-KOH pH 7, 55°C
[3] = target: the molecule itself; test: SEC; gel filtration under native conditions against SDS-PAGE under denaturing conditions; Superdex 200 HiLoad 26/60, 30 mM Tris-300 mM NaCl, pH 7

B1: trehalose-6-phosphate synthase (TPS, Saci_1249) of Sulfolobus acidocaldarius (enzyme, UniProt Q4J9D6 1-444, looked up)
chain: MFSVSISTQTPPVRFRYTYRDLMDKYGFFELPIELSQLDSSDYYFSVGGVPKMMLSLINKFNKVRWVSLGPGYPPQVKYGDQRLFDFIDLDPENLKNYTRYKEGIYNESHGIEKYEIKPSEYISYADYNWISAKKLLEFHNDSDVYFINDFQLLLVGGIIGPSAPAILWYHIPFVPENLSPRIRDFIVRSFEGYDYVILSTKRDLEGLLRIGAKINARQVYPFIDTSTLRRGSKGEVDKVKSKYNIGKDEKVITVVARMDPMKSQDVAIMALKKIKESNAKLLLVGNGSFTSGALGTNKAGNWVRKLQSLASNLGVDKKVVFTGHVSDEELNAIYEASDVIVLPSRIEGFGLVVCEGWFFEKPAIVSSGAGVSELVIDGSNGFVFKSGNYEELAEKIDIVLKEPDKYSRLSRDTVNKCNVEYAFNQLKDIFAQAMKDYGKNVNL
notes: Trehalose-6-phosphate synthase TPS (Saci_1249), Sulfolobus acidocaldarius; gene of 1,335 bp encoding 444 amino acids, calculated mass 50.3 kDa; amplified from genomic DNA with primers that run from the start codon to the stop codon, cloned into pET15b; The N-terminal His tag comes from pET15b; also called GT4-like TPS; source: E. coli BL21(DE3)-CodonPlus, purified …
Purified protein [1]
  Km: 1800 µM
Purified protein [2]
  Km: 3800 µM
  kcat: 4.9 s⁻¹
[3]
  stoichiometry N: 2

From publication PMC7688234, “Salt Stress Response of Sulfolobus acidocaldarius Involves Complex Trehalose Metabolism Utilizing a Novel Trehalose-6-Phosphate Synthase (TPS)/Trehalose-6-Phosphate Phosphatase (TPP) Pathway” (Applied and Environmental Microbiology, 2020)
